From paper PMC4691284

Biological target: Fer F-BAR domain (human) (UniProt P16591)
Experiment: AUC

Chain of Fer F-BAR domain (P16591 1-264): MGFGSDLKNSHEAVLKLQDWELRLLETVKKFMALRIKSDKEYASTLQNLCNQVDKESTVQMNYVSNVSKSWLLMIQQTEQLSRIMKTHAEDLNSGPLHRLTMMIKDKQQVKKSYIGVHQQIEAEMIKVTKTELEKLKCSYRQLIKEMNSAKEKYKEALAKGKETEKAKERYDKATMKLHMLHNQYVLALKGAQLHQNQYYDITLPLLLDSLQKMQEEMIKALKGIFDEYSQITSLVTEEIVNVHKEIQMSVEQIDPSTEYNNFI

stoichiometry N: 2 dimers
Substance: Fer F-BAR domain (from UniProt P16591 1-259) (domain or fragment)
